Experimental data reported in article PMC5014518.

Target: T1, 2x-p19-TAT (Carnation Italian Ringspot Virus, UniProt Q66104 1-172)
T1 sequence: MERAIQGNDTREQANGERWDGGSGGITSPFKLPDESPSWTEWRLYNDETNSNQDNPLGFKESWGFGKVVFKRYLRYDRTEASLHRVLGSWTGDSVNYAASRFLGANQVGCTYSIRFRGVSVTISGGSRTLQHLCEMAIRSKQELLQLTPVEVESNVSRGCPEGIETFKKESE
Experiment: EMSA

B1: Cy3-CSK siRNA (dsRNA)
RNA 1: CUACCGCAUCAUGUACCAUTT
RNA 2: AUGGUACAUGAUGCGGUAGTT
modifications: 3' dTdT on both strands (DNA residues written TT)
B1 gave a Kd of 0.44 ± 0.16 nM.
